The values that follow come from publication PMC7367873, “Dissecting the sequence determinants for dephosphorylation by the catalytic subunits of phosphatases PP1 and PP2A” (Nature Communications, 2020).

In test [1] the test system is GFP-14-3-3β. Kind of test: GFP-14-3-3β co-IP with LC-MS/MS, untreated GFP-14-3-3β versus GFP control (14-3-3 interactome). Particulars: GFP-14-3-3β co-IP LC-MS/MS; untreated vs GFP; student's t-test; label-free quantification, 3 replicates each. In kind it is binding, human.
Test [2] has as its system GFP-14-3-3β and its binding proteins. In words: GFP-14-3-3β co-IP with LC-MS/MS label-free quantification, untreated versus PP1c-treated. Further details: species or system human. The settings on record: GFP-14-3-3β co-IP LC-MS/MS; PP1 vs untreated; student's t-test; label-free quantification, 3 replicates each.

B1: HNRNPUL1 (protein, UniProt Q9BUJ2 1-856, looked up)
Heterogeneous nuclear …: MDVRRLKVNELREELQRRGLDTRGLKAELAERLQAALEAEEPDDERELDADDEPGRPGHINEEVETEGGSELEGTAQPPPPGLQPHAEPGGYSGPDGHYAMDNITRQNQFYDTQVIKQENESGYERRPLEMEQQQAYRPEMKTEMKQGAPTSFLPPEASQLKPDRQQFQSRKRPYEENRGRGYFEHREDRRGRSPQPPAEEDEDDFDDTLVAIDTYNCDLHFKVARDRSSGYPLTIEGFAYLWSGARASYGVRRGRVCFEMKINEEISVKHLPSTEPDPHVVRIGWSLDSCSTQLGEEPFSYGYGGTGKKSTNSRFENYGDKFAENDVIGCFADFECGNDVELSFTKNGKWMGIAFRIQKEALGGQALYPHVLVKNCAVEFNFGQRAEPYCSVLPGFTFIQHLPLSERIRGTVGPKSKAECEILMMVGLPAAGKTTWAIKHAASNPSKKYNILGTNAIMDKMRVMGLRRQRNYAGRWDVLIQQATQCLNRLIQIAARKKRNYILDQTNVYGSAQRRKMRPFEGFQRKAIVICPTDEDLKDRTIKRTDEEGKDVPDHAVLEMKANFTLPDVGDFLDEVLFIELQREEADKLVRQYNEEGRKAGPPPEKRFDNRGGGGFRGRGGGGGFQRYENRGPPGGNRGGFQNRGGGSGGGGNYRGGFNRSGGGGYSQNRWGNNNRDNNNSNNRGSYNRAPQQQPPPQQPPPPQPPPQQPPPPPSYSPARNPPGASTYNKNSNIPGSSANTSTPTVSSYSPPQPSYSQPPYNQGGYSQGYTAPPPPPPPPPAYNYGSYGGYNPAPYTPPPPPTAQTYPQPSYNQYQQYAQQWNQYYQNQGQWPPYYGNYDYGSYSGNTQGGTSTQ
For the molecule B1, in test [1], the “Difference (log2), untreated vs GFP” value was 0.2278 log2. Further, the “Difference (log2), PP1 vs untreated” value in test [2] was -0.3133 log2.

B2: PWP2 (protein, UniProt Q15269 1-919, looked up)
Periodic tryptophan protein 2 …: MKFAYRFSNLLGTVYRRGNLNFTCDGNSVISPVGNRVTVFDLKNNKSDTLPLATRYNVKCVGLSPDGRLAIIVDEGGDALLVSLVCRSVLHHFHFKGSVHSVSFSPDGRKFVVTKGNIAQMYHAPGKKREFNAFVLDKTYFGPYDETTCIDWTDDSRCFVVGSKDMSTWVFGAERWDNLIYYALGGHKDAIVACFFESNSLDLYSLSQDGVLCMWQCDTPPEGLRLKPPAGWKADLLQREEEEEEEEDQEGDRETTIRGKATPAEEEKTGKVKYSRLAKYFFNKEGDFNNLTAAAFHKKSHLLVTGFASGIFHLHELPEFNLIHSLSISDQSIASVAINSSGDWIAFGCSGLGQLLVWEWQSESYVLKQQGHFNSMVALAYSPDGQYIVTGGDDGKVKVWNTLSGFCFVTFTEHSSGVTGVTFTATGYVVVTSSMDGTVRAFDLHRYRNFRTFTSPRPTQFSCVAVDASGEIVSAGAQDSFEIFVWSMQTGRLLDVLSGHEGPISGLCFNPMKSVLASASWDKTVRLWDMFDSWRTKETLALTSDALAVTFRPDGAELAVATLNSQITFWDPENAVQTGSIEGRHDLKTGRKELDKITAKHAAKGKAFTALCYSADGHSILAGGMSKFVCIYHVREQILMKRFEISCNLSLDAMEEFLNRRKMTEFGNLALIDQDAGQEDGVAIPLPGVRKGDMSSRHFKPEIRVTSLRFSPTGRCWAATTTEGLLIYSLDTRVLFDPFELDTSVTPGRVREALRQQDFTRAILMALRLNESKLVQEALEAVPRGEIEVVTSSLPELYVEKVLEFLASSFEVSRHLEFYLLWTHKLLMLHGQKLKSRAGTLLPVIQFLQKSIQRHLDDLSKLCSWNHYNMQYALAVSKQRGTKRSLDPLGSEEEAEASEDDSLHLLGGGGRDSEEEMLA
On to B2, for which the “Difference (log2), untreated vs GFP” value in test [1] is 0.9621 log2. Also, in test [2], the “Difference (log2), PP1 vs untreated” value is -0.2929 log2.

B3: OSBPL3 (protein, UniProt Q9H4L5 1-887, looked up)
Oxysterol-binding …: MMSDEKNLGVSQKLVSPSRSTSSCSSKQGSRQDSWEVVEGLRGEMNYTQEPPVQKGFLLKKRKWPLKGWHKRFFYLDKGILKYAKSQTDIEREKLHGCIDVGLSVMSVKKSSKCIDLDTEEHIYHLKVKSEEVFDEWVSKLRHHRMYRQNEIAMFPHEVNHFFSGSTITDSSSGVFDSISSRKRSSISKQNLFQTGSNVSFSCGGETRVPLWLQSSEDMEKCSKDLAHCHAYLVEMSQLLQSMDVLHRTYSAPAINAIQGGSFESPKKEKRSHRRWRSRAIGKDAKGTLQVPKPFSGPVRLHSSNPNLSTLDFGEEKNYSDGSETSSEFSKMQEDLCHIAHKVYFTLRSAFNIMSAEREKLKQLMEQDASSSPSAQVIGLKNALSSALAQNTDLKERLRRIHAESLLLDSPAVAKSGDNLAEENSRDENRALVHQLSNESRLSITDSLSEFFDAQEVLLSPSSSENEISDDDSYVSDISDNLSLDNLSNDLDNERQTLGPVLDSGREAKSRRRTCLPAPCPSSSNISLWNILRNNIGKDLSKVAMPVELNEPLNTLQRLCEELEYSELLDKAAQIPSPLERMVYVAAFAISAYASSYYRAGSKPFNPVLGETYECIREDKGFQFFSEQVSHHPPISACHAESRNFVFWQDVRWKNKFWGKSMEIVPIGTTHVTLPVFGDHFEWNKVTSCIHNILSGQRWIEHYGEIVIKNLHDDSCYCKVNFIKAKYWSTNAHEIEGTVFDRSGKAVHRLFGKWHESIYCGGGSSSACVWRANPMPKGYEQYYSFTQFALELNEMDPSSKSLLPPTDTRFRPDQRFLEEGNLEEAEIQKQRIEQLQRERRRVLEENHVEHQPRFFRKSDDDSWVSNGTYLELRKDLGFSKLDHPVLW
B3: the “Difference (log2), untreated vs GFP” value in test [1] was determined as 1.582 log2. For the same molecule, the “Difference (log2), PP1 vs untreated” value in test [2] is -0.2879 log2.

B4: ABCF3 (protein, UniProt Q9NUQ8 2-709, looked up)
ATP-binding cassette …: ATCAEILRSEFPEIDGQVFDYVTGVLHSGSADFESVDDLVEAVGELLQEVSGDSKDDAGIRAVCQRMYNTLRLAEPQSQGNSQVLLDAPIQLSKITENYDCGTKLPGLLKREQSSTVNAKKLEKAEARLKAKQEKRSEKDTLKTSNPLVLEEASASQAGSRKESRLESSGKNKSYDVRIENFDVSFGDRVLLAGADVNLAWGRRYGLVGRNGLGKTTLLKMLATRSLRVPAHISLLHVEQEVAGDDTPALQSVLESDSVREDLLRRERELTAQIAAGRAEGSEAAELAEIYAKLEEIEADKAPARASVILAGLGFTPKMQQQPTREFSGGWRMRLALARALFARPDLLLLDEPTNMLDVRAILWLENYLQTWPSTILVVSHDRNFLNAIATDIIHLHSQRLDGYRGDFETFIKSKQERLLNQQREYEAQQQYRQHIQVFIDRFRYNANRASQVQSKLKMLEKLPELKPVDKESEVVMKFPDGFEKFSPPILQLDEVDFYYDPKHVIFSRLSVSADLESRICVVGENGAGKSTMLKLLLGDLAPVRGIRHAHRNLKIGYFSQHHVEQLDLNVSAVELLARKFPGRPEEEYRHQLGRYGISGELAMRPLASLSGGQKSRVAFAQMTMPCPNFYILDEPTNHLDMETIEALGRALNNFRGGVILVSHDERFIRLVCRELWVCEGGGVTRVEGGFDQYRALLQEQFRREGFL
For the molecule B4, the “Difference (log2), untreated vs GFP” value in test [1] was determined as 1.23 log2. Besides, in test [2], the “Difference (log2), PP1 vs untreated” value is -0.3214 log2.
